Source: article PMC3323696

B1: huntingtin associated protein 1 (HAP1) (natural protein)
chain: MRPKEQVQSGAGDGTGSGDPAAGTPTTQPAVGPAPEPSAEPKPAPAQGTGSGQKSGSRTKTGSFCRSMIIGDSDAPWTRYVFQGPYGPRATGLGTGKAEGIWKTPAAYIGRRPGVSGPERAAFIRELQEALCPNPPPTKKITEDDVKVMLYLLEEKERDLNTAARIGQSLVKQNSVLMEENNKLETMLGSAREEILHLRKQVNLRDDLLQLYSDSDDDDDEEDEEDEEEGEEEEREGQRDQDQQHDHPYGAPKPHPKAETAHRCPQLETLQQKLRLLEEENDHLREEASHLDNLEDEEQMLILECVEQFSEASQQMAELSEVLVLRLEGYERQQKEITQLQAEITKLQQRCQSYGAQTEKLQQMLASEKGIHSESLRAGSYMQDYGSRPRDRQEDGKSHRQRSSMPAGSVTHYGYSVPLDALPSFPETLAEELRTSLRKFITDPAYFMERRDTHCREGRKKEQRAMPPPPAQDLKPPEDFEAPEELVPEEELGAIEEVGTAEDGQAEENEQASEETEAWEEVEPEVDETTRMNVVVSALEASGLGPSHLDMKYVLQQLSNWQDAHSKRQQKQKVVPKDSPTPQQQTNMGGGILEQQPRVPTQDSQRLEEDRATHSPSAREEEGPSGAT

Experiments:
[1] = molecular target: tubulin (α-tubulin) (mouse (endogenous in striatum)) (UniProt P68369); experiment: co-IP
[2] = molecular target: GABAA receptor (GABAAR β2/3 subunits) (mouse (endogenous in striatum)) (UniProt P63137); experiment: co-IP
UniProt P63137, sequence (P63137 whole entry, looked up): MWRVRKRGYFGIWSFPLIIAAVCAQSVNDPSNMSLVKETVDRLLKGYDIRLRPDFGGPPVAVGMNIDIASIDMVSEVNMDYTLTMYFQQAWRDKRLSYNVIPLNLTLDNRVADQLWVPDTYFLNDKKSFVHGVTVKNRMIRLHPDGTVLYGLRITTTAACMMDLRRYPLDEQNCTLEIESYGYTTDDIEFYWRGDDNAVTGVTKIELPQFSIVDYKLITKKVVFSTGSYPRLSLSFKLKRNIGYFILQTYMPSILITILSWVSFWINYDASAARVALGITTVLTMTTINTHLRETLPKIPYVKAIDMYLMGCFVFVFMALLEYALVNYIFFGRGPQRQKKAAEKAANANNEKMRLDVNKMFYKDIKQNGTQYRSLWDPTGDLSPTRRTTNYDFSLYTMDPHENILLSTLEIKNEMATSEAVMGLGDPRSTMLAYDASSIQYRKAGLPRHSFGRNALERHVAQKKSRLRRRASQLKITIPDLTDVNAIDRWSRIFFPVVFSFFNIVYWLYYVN

Row | Molecule | co-precipitated amount in HD (N171-82Q) mice, % of WT mice [1] | co-precipitated amount in HD (N171-82Q) mice, % of WT mice [2]
1 | KIF5 heavy chain (from UniProt Q61768 1-963) (natural protein) | 35.5 % of WT | 41.5 % of WT
2 | tubulin (α-tubulin) (from UniProt P68369 1-451) (natural protein) | – | 67.4 % of WT
3 | GABAA receptor (GABAAR β2/3 subunits) (from UniProt P63137 26-512; P63080 26-473) | 65.3 % of WT | –
4 | B1 | – | 42.9 % of WT
